Experimental data published in CN116836277A.
Changes are numbered by the printed parent chain.

B1: Anti-E2 7A4mut2 (antibody, V domains shown)
VH: QVRLQESGPSLVKPSQTLSLTCTISGFSISGNAITWVRQAPGEVPEWLGGVDNRGSAYYSPALRSRLSITRDTSKSQVSLSLYGVTVEDTAVYYCGRGVWGVDGAGYAHDYWGPGLLVTVST
VL: QAVVTQLSSVSGSLGQRVSLTCSGSSSNVGSHSVDWFQKLSESGLRIVIYGTRNRPSGVPDRFSGSKSGNTATLTITSLQTEDEADYYCATSDSTTMTYIFGDGTRLTALG
B2: Anti-E2 7A4mut4 (antibody, V domains shown)
VH: B1 VH with I29L
VL: B1 VL with I49L
B3: Anti-E2 7A4mut1 (antibody)
heavy: QVRLQESGPSLVKPSQTLSLTCTISGFSLSGNAITWVRQAPGEVPEWLGGVDNRGSAYYSPALRSRLSITRDTSKSQVSLSLYGVTVEDTAVYYCGRGVWGVDGAGYAHDYWGPGLLVTVSTASTTPPKVYPLTSCCGDTSSSIVTLGCLVSSYMPEPVTVTWNSGALTSGVHTFPAILQSSGLYSLSSVVTVPASTSGAQTFICNVAHPASSTKVDKRVGLSSDYSKCSKPPCVSRPSVFIFPPKPKDSLMITGTPEVTCVVVDVGQGDPEVQFSWFVDNVEVRTARTKPREEQFNSTFRVVSALPIQHDHWTGGKEFKCKVHSKGLPAPIVRTISRAKGQAREPQVYVLAPPQEELSKSTLSVTCLVTGFYPDYIAVEWQRARQPESEDKYGTTTSQLDADGSYFLYSRLRVDKSSWQRGDTYACVVMHEALHNHYTQKSISKPPGK
light: QAVVTQLSSVSGSLGQRVSLTCSGSSSNVGSHSVDWFQKLSESGLRIVIYGTRNRPSGVPDRFSGSKSGNTATLTITSLQTEDEADYYCATSDSTTMTYIFGDGTRLTALGQPKSAPSVTLFPPSTEELSTNKATVVCLINDFYPGSVNVVWKADGSTINQNVKTTQASKQSNSKYAASSYLTLTGSEWKSKSSYTCEVTHEGSTVTKTVKPSECS
B4: Anti-E2 7A4mut3 (antibody)
heavy: B3 heavy
light: B3 light with L20I

molecular target: E2-Albumin偶联物; experiment: indirect ELISA, E2-Albumin coated 3 ug/ml, antibody 125 ng/ml

Question: With B1 as the binder, how does the OD450 read?
Answer: 2.25 OD450

Question: For B2, which OD450 is on record?
Answer: 2.26 OD450

Question: For B3, which OD450 is on record?
Answer: 2.06 OD450

Question: For B4, which OD450 is on record?
Answer: 2.27 OD450

molecular target: E2-Albumin偶联物; experiment: indirect ELISA, E2-Albumin coated 3 ug/ml, antibody 31.3 ng/ml

Question: Which OD450 does the source give for B1 here?
Answer: 1.69 OD450

Question: How did the OD450 turn out when B2 was run?
Answer: 1.31 OD450

Question: How did the OD450 turn out when B3 was run?
Answer: 0.94 OD450

Question: How did the OD450 turn out when B4 was run?
Answer: 1.6 OD450

molecular target: E2-Albumin偶联物; experiment: indirect ELISA, E2-Albumin coated 3 ug/ml, antibody 62.5 ng/ml

Question: With B1 as the binder, how does the OD450 read?
Answer: 1.94 OD450

Question: For B2, which OD450 is on record?
Answer: 2.12 OD450

Question: B3 was tested. Which OD450 did it give?
Answer: 1.52 OD450

Question: Which OD450 does the source give for B4 here?
Answer: 2.16 OD450

molecular target: E2-Albumin偶联物; experiment: indirect ELISA, E2-Albumin coated 3 ug/ml, antibody 7.81 ng/ml

Question: With B1 as the binder, how does the OD450 read?
Answer: 0.497 OD450

Question: For B2, which OD450 is on record?
Answer: 0.461 OD450

Question: Which OD450 does the source give for B3 here?
Answer: 0.22 OD450

Question: How did the OD450 turn out when B4 was run?
Answer: 0.508 OD450

molecular target: E2-Albumin偶联物; experiment: indirect ELISA, E2-Albumin coated 3 ug/ml, antibody 15.63 ng/ml

Question: With B1 as the binder, how does the OD450 read?
Answer: 0.953 OD450

Question: Which OD450 does the source give for B2 here?
Answer: 0.806 OD450

Question: Which OD450 does the source give for B3 here?
Answer: 0.366 OD450

Question: For B4, which OD450 is on record?
Answer: 0.979 OD450

molecular target: E2-Albumin偶联物; experiment: indirect ELISA, E2-Albumin coated 3 ug/ml, antibody 0.00 ng/ml (blank)

Question: With B1 as the binder, how does the OD450 read?
Answer: 0.065 OD450

Question: With B2 as the binder, how does the OD450 read?
Answer: 0.047 OD450

Question: For B3, which OD450 is on record?
Answer: 0.01 OD450

Question: For B4, which OD450 is on record?
Answer: 0.023 OD450

molecular target: E2-Albumin偶联物; experiment: biosensor (AMC sensor), antibody immobilised at 5 ug/ml, E2-Albumin in gradient

Question: B1 was tested. Which Kd did it give?
Answer: 0.188 nM

Question: What about the koff of the same binder?
Answer: 0.00032 s⁻¹

Question: What about the kon of the same binder?
Answer: 1.7e+06 M⁻¹ s⁻¹

Question: For B2, which Kd is on record?
Answer: 0.214 nM

Question: What about the koff of the same binder?
Answer: 0.00044 s⁻¹

Question: And the kon?
Answer: 2.06e+06 M⁻¹ s⁻¹

Question: Which Kd does the source give for B3 here?
Answer: 9.84 nM

Question: What about the koff of the same binder?
Answer: 0.00022 s⁻¹

Question: What about the kon of the same binder?
Answer: 22400 M⁻¹ s⁻¹

Question: What does the source list for B4?
Answer: Kd: 0.234 nM; koff: 0.00038 s⁻¹; kon: 1.63e+06 M⁻¹ s⁻¹
